T1: CD96 (UniProt P40200 22-585, limits assumed)
T1 construct: whole, on cells
T1 sequence (looked up): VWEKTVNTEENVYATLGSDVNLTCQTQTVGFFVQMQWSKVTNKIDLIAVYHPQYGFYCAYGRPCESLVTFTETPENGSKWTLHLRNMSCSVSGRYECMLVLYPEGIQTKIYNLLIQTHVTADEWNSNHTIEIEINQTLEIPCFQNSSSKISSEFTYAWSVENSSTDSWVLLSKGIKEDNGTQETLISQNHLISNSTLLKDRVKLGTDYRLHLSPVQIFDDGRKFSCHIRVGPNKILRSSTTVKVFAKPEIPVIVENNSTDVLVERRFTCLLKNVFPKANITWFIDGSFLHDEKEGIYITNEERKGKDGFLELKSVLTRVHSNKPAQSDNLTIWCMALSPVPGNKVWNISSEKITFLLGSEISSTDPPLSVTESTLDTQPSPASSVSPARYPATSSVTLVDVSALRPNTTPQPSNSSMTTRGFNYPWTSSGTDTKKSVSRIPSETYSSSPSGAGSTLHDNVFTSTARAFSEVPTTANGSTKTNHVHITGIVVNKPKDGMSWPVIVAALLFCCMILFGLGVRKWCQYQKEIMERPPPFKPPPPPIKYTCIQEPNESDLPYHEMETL

T2: CD226 (UniProt Q15762 19-336)
T2 construct: whole, on cells
T2 sequence (looked up): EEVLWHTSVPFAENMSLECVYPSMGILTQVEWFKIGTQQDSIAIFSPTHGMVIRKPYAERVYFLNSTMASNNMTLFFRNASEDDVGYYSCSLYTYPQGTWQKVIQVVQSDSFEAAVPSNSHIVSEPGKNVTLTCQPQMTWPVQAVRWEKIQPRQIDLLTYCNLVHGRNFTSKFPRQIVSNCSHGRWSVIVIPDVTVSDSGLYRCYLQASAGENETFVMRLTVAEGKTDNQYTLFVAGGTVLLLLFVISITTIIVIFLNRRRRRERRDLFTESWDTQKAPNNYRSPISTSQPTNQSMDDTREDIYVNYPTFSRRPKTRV


Legend:
[1] = target: T3, human CD28 (human, UniProt P10747 19-220); test: flow cytometry on Jurkat cells (CD28)
T3 construct: Endogenous CD28 on Jurkat/IL2 reporter cells

[2] = target: T4, human PD-L1 (human, UniProt Q9NZQ7 19-290); test: flow cytometry on CHO cells stably expressing PD-L1
T4 construct: also called huPD-L1; CD274
T4 sequence (Q9NZQ7 19-290): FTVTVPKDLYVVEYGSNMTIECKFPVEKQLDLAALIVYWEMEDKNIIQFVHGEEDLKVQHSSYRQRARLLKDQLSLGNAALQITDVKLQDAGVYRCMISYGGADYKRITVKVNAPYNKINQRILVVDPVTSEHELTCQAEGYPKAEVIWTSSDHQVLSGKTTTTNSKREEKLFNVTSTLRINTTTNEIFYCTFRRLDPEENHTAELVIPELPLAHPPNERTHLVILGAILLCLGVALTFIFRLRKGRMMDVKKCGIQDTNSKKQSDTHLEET

[3] = target: T1, CD96; test: flow cytometry on cells expressing CD96, Fc fusion at 100 nM
[4] = target: T2, CD226; test: flow cytometry on cells expressing CD226, Fc fusion at 100 nM
[5] = target: T5, human PD-L1 (human, UniProt Q9NZQ7 19-290); test: flow cytometry, CHO cells stably expressing PD-L1
T5 construct: also called huPD-L1; CD274
T5 sequence (Q9NZQ7 19-290): as above

[6] = target: human CD28 (human, UniProt P10747 19-220); test: flow cytometry, Jurkat cells (CD28)
[7] = target: T5, human PD-L1; test: flow cytometry; PD-L1 MFI over CD28 MFI
[8] = target: T6, CD28, endogenously expressed on Jurkat/IL2 reporter cells (human, UniProt P10747 19-220); test: flow cytometry, Jurkat/IL2 reporter cells (endogenous CD28)
T6 construct: whole, on cells

[9] = target: T7, human CTLA4 (huCTLA4), full-length, stably expressed on CHO cells (human, UniProt P16410 36-223); test: flow cytometry, CHO cells expressing huCTLA4
T7 construct: whole, on cells
T7 sequence (P16410 36-223): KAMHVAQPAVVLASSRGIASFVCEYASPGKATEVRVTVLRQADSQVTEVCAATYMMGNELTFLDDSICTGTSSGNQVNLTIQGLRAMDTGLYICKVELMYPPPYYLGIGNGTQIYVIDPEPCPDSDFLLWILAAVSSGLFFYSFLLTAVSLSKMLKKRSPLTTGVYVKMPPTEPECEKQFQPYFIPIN

[10] = target: T8, human PD-L1 (huPD-L1), full-length, stably expressed on CHO cells (human, UniProt Q9NZQ7 19-290); test: flow cytometry, CHO cells expressing huPD-L1
T8 construct: whole, on cells
T8 sequence (Q9NZQ7 19-290): as the sequence (Q9NZQ7 19-290) above

[11] = target: T9, human CTLA-4 (CTLA4), full-length, expressed on the surface of CHO cells (human, UniProt P16410 36-223); test: flow cytometry, CHO cells stably expressing human CTLA-4, 33.3 nM Fc fusion, PE anti-human Fc
T9 construct: also called huCTLA4
T9 sequence (P16410 36-223): as the sequence (P16410 36-223) above

[12] = target: T10, human CD28, endogenously expressed on Jurkat/IL2 reporter cells (human, UniProt P10747 19-220); test: flow cytometry, Jurkat/IL2 reporter cells (endogenous CD28), 33.3 nM Fc fusion, PE anti-human Fc
T10 construct: This is the endogenous CD28 of Jurkat cells

[13] = target: T11, human PD-L1 (CD274), full-length, expressed on the surface of CHO cells (human, UniProt Q9NZQ7 19-290); test: flow cytometry on PD-L1 CHO cells; MFI against WT CD80 ECD-Fc (R&D)
T11 construct: also called huPD-L1; B7-H1
T11 sequence (Q9NZQ7 19-290): as the sequence (Q9NZQ7 19-290) above

[14] = target: T10, human CD28, endogenously expressed on …; test: flow cytometry on Jurkat cells (CD28); MFI against WT CD80 ECD-Fc (R&D)
[15] = target: T11, human PD-L1 (CD274), full-length, …; test: flow cytometry; MFI on PD-L1 CHO cells over MFI on Jurkat cells (CD28)
[16] = target: T9, human CTLA-4 (CTLA4), full-length, …; test: flow cytometry on CTLA-4 CHO cells; MFI against WT CD80 ECD-Fc (R&D)
[17] = target: T11, human PD-L1 (CD274), full-length, …; test: flow cytometry, CHO cells stably expressing human PD-L1, 33.3 nM Fc fusion, PE anti-human Fc
[18] = target: T12, human PD-L1, expressed on CHO cells (human, UniProt Q9NZQ7 19-290); test: flow cytometry on CHO cells stably expressing human PD-L1; PE anti-human Fc
T12 construct: Full-length surface expression construct transduced by lentivirus into CHO cells; also called huPD-L1; CD274
T12 sequence (Q9NZQ7 19-290): as above

MFI at 33.3 nM [11]	MFI at 33.3 nM [12]	Fold change to WT [13]	Fold change to WT [14]	Ratio of PDL1:CD28 [15]	Fold change to WT CD80 [16]	MFI at 33.3 nM [17]	Binder	also measured
–	–	–	–	–	–	–	CD80 E35D/M47V/N48K/V68M/K89N IgV-Fc, GS(G4S)3 linker (Fc fusion, not shown: a dimerising Fc or GST) VIHVTKEVKEVATLSCGHNVSVEELAQTRIYWQKDKKMVLTMMSGDVKIWPEYKNRTIFDITNNLSIMILALRPSDEGTYECVVLKYENDAFKREHLAEVTLSVKADGSGGGGSGGGGSGGGGS	MFI at 33.3 nM [1]: 2110 MFI; MFI at 33.3 nM [2]: 24200 MFI
–	–	–	–	–	–	–	CD80 E35D/D46V/M47L/V68M/L85Q/E88D IgV-Fc, GS(G4S)3 linker (Fc fusion, not shown: a dimerising Fc or GST) VIHVTKEVKEVATLSCGHNVSVEELAQTRIYWQKDKKMVLTMMSGVLNIWPEYKNRTIFDITNNLSIMILALRPSDEGTYECVVQKYDKDAFKREHLAEVTLSVKADGSGGGGSGGGGSGGGGS	MFI at 33.3 nM [1]: 267 MFI; MFI at 33.3 nM [2]: 22600 MFI
–	–	–	–	–	–	–	CD155 S52L/L104E variant IgV-Fc fusion (Fc fusion, not shown: a dimerising Fc or GST) WPPPGTGDVVVQAPTQVPGFLGDSVTLPCYLQVPNMEVTHVSQLTWARHGELGSMAVFHQTQGPSYSESKRLEFVAARLGAELRNASLRMFGLRVEDEGNYTCEFVTFPQGSRSVDIWLRVL	MFI at 100 nM [3]: 1830 MFI; MFI at 100 nM [4]: 2210 MFI
–	–	–	–	–	–	–	CD155 T45Q/S52Q variant IgV-Fc fusion (Fc fusion, not shown: a dimerising Fc or GST) WPPPGTGDVVVQAPTQVPGFLGDSVTLPCYLQVPNMEVTHVSQLQWARHGEQGSMAVFHQTQGPSYSESKRLEFVAARLGAELRNASLRMFGLRVEDEGNYTCLFVTFPQGSRSVDIWLRVL	MFI at 100 nM [3]: 2450 MFI; MFI at 100 nM [4]: 5790 MFI
–	–	–	–	–	–	–	CD155 T45Q/S52R/G111R variant IgV-Fc fusion (Fc fusion, not shown: a dimerising Fc or GST) WPPPGTGDVVVQAPTQVPGFLGDSVTLPCYLQVPNMEVTHVSQLQWARHGERGSMAVFHQTQGPSYSESKRLEFVAARLGAELRNASLRMFGLRVEDEGNYTCLFVTFPQRSRSVDIWLRVL	MFI at 100 nM [3]: 2340 MFI; MFI at 100 nM [4]: 2080 MFI
–	–	–	–	–	–	–	CD80 ECD-Fc (inert) with GSG4S linker, Example 16 (Fc fusion) VIHVTKEVKEVATLSCGHNVSVEELAQTRIYWQKEKKMVLTMMSGDMNIWPEYKNRTIFDITNNLSIVILALRPSDEGTYECVVLKYEKDAFKREHLAEVTLSVKADFPTPSISDFEIPTSNIRRIICSTSGGFPEPHLSWLENGEELNAINTTVSQDPETELYAVSSKLDFNMTTNHSFMCLIKYGHLRVNQTFNWNTTKQEHFPDNGSGGGGSEPKSSDKTHTCPPCPAPEAEGAPSVFLFPPKPKDTLMISRTPEVTCVVVDVSHEDPEVKFNWYVDGVEVHNAKTKPREEQYNSTYRVVSVLTVLHQDWLNGKEYKCKVSNKALPAPIEKTISKAKGQPREPQVYTLPPSREEMTKNQVSLTCLVKGFYPSDIAVEWESNGQPENNYKTTPPVLDSDGSFFLYSKLTVDKSRWQQGNVFSCSVMHEALHNHYTQKSLSLSPG	MFI at 33.3 nM [1]: 37 MFI; MFI at 33.3 nM [2]: 35 MFI
–	–	–	–	–	–	–	CD80 IgV-Fc T13R/Q33R/E35D/M38I/M47L/V68M (Fc fusion, not shown: a dimerising Fc or GST) VIHVTKEVKEVARLSCGHNVSVEELAQTRIYWRKDKKIVLTMMSGDLNIWPEYKNRTIFDITNNLSIMILALRPSDEGTYECVVLKYEKDAFKREHLAEVTLSVKAD	Fold change to WT CD80 [5]: 87 fold; MFI at 33.3 nM [5]: 4480 MFI; Fold change to WT CD80 [6]: 0.4 fold; MFI at 33.3 nM [6]: 13.8 MFI; Ratio of PDL1:CD28 [7]: 325 ratio
–	–	–	–	–	–	–	variant CD80 IgV-Fc E35D/M47V/V68M/L85M (Fc fusion, not shown: small tags and cut ends; a dimerising Fc or GST) VIHVTKEVKEVATLSCGHNVSVEELAQTRIYWQKDKKMVLTMMSGDVNIWPEYKNRTIFDITNNLSIMILALRPSDEGTYECVVMKYEKDAFKREHLAEVTLSVKAD	MFI at 33.3 nM [8]: 201 MFI; MFI at 33.3 nM [9]: 16000 MFI; MFI at 33.3 nM [10]: 9180 MFI
3530 MFI	264 MFI	15.8 fold	0.03 fold	476 ratio	0.02 fold	126000 MFI	variant CD80 IgV-Fc Q33L/E35D/M47L/V68M/L85Q/E88D (Fc fusion, not shown: a dimerising Fc or GST) VIHVTKEVKEVATLSCGHNVSVEELAQTRIYWLKDKKMVLTMMSGDLNIWPEYKNRTIFDITNNLSIMILALRPSDEGTYECVVQKYDKDAFKREHLAEVTLSVKAD	–
437000 MFI	14000 MFI	0.17 fold	1.83 fold	0 ratio	2.45 fold	1350 MFI	variant CD80 IgV-Fc V22A/E35D/V68E/A71D (Fc fusion, not shown: a dimerising Fc or GST, The molecule is an Fc fusion, which the general text describes as a dimer) VIHVTKEVKEVATLSCGHNVSAEELAQTRIYWQKDKKMVLTMMSGDMNIWPEYKNRTIFDITNNLSIEILDLRPSDEGTYECVVLKYEKDAFKREHLAEVTLSVKAD	–
1180 MFI	279 MFI	5.69 fold	0.04 fold	162 ratio	0.01 fold	45200 MFI	variant CD80 IgV-Fc Q33L/E35D/N48K/L85Q/L97Q (Fc fusion, not shown: a dimerising Fc or GST) VIHVTKEVKEVATLSCGHNVSVEELAQTRIYWLKDKKMVLTMMSGDMKIWPEYKNRTIFDITNNLSIVILALRPSDEGTYECVVQKYEKDAFKREHQAEVTLSVKAD	–
–	–	–	–	–	–	–	variant CD80 IgV-Fc E35D/M38T/D46E/M47V/N48S (Fc fusion, not shown: small tags and cut ends; a dimerising Fc or GST, Fc fusion of the variant IgV) VIHVTKEVKEVATLSCGHNVSVEELAQTRIYWQKDKKTVLTMMSGEVSIWPEYKNRTIFDITNNLSIVILALRPSDEGTYECVVLKYEKDAFKREHLAEVTLSVKAD	MFI at 33.3 nM [18]: 19400 MFI
–	–	–	–	–	–	–	variant CD80 IgV-Fc E35D/D46E/M47L/V68M/T79M/L85M (Fc fusion, not shown: small tags and cut ends; a dimerising Fc or GST) VIHVTKEVKEVATLSCGHNVSVEELAQTRIYWQKDKKMVLTMMSGELNIWPEYKNRTIFDITNNLSIMILALRPSDEGMYECVVMKYEKDAFKREHLAEVTLSVKAD	MFI at 33.3 nM [8]: 403 MFI; MFI at 33.3 nM [10]: 8640 MFI
77400 MFI	323 MFI	3.2 fold	0.04 fold	79 ratio	0.43 fold	25400 MFI	variant CD80 IgV-Fc V22A/R29H/E35D/D46E/M47I (Fc fusion, not shown: a dimerising Fc or GST) VIHVTKEVKEVATLSCGHNVSAEELAQTHIYWQKDKKMVLTMMSGEINIWPEYKNRTIFDITNNLSIVILALRPSDEGTYECVVLKYEKDAFKREHLAEVTLSVKAD	–
2110 MFI	366 MFI	3.53 fold	0.05 fold	77 ratio	0.01 fold	28000 MFI	variant CD80 IgV-Fc Q33L/E35D/M47L/A71G/F92S (Fc fusion, not shown: a dimerising Fc or GST) VIHVTKEVKEVATLSCGHNVSVEELAQTRIYWLKDKKMVLTMMSGDLNIWPEYKNRTIFDITNNLSIVILGLRPSDEGTYECVVLKYEKDASKREHLAEVTLSVKAD	–

Reference: patent US20210130436A1 (published 2021)
